We go through 17 molecules from patent US20240101668A1 (WUGEN, published 2024).

Assay [1] addresses T1, huCD33-G69-Fc recombinant protein (human, UniProt P20138 18-259).
T1 construct: extracellular domain; also called CD33 R69G
Briefly: BLI.
Method: Discovered scFvs were analyzed for binding to huCD33-R69-His or huCD33-G69-Fc recombinant proteins (for anti-CD33 scFvs; for CLL-1 scFvs, huCLL1-K244-Avi-Tev-His or huCLL1-Q244-Avi-Tev-His were used; for FLT3, huFLT3-T227-His or huFLT3-M227-Fc were used) using BLI on a ForteBio Octet HTX instrument. Streptavidin-coated biosensors were loaded with biotinylated anti-V5 tag monoclonal antibody for 5 min and were then quenched and blocked with 20 μM amine-PEG2-Biotin for 5 min. scFvs were captured on biosensors from scFv clone periplasmic extracts. huCD33 (or huCLL-1, or huFLT3) proteins were then associated with the captured scFvs for 2 minutes, followed by dissociation with buffer (1×HBST [10 mM HEPES pH 7.4, 150 mM NaCl, 0.05% Tween-20], 1 g/L BSA) for 5 minutes. […] Data was fitted with 1:1 Langmuir equation and off-rate values were reported.

Assay [2] addresses T2, huCD33-R69 stably expressed on Jurkat cells (human, UniProt P20138 18-364).
T2 construct: whole, on cells; >200,000 receptors per cell; also called CD33 WT; CD33^ARG69
Briefly: FACS on cells.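 Also: fixed Jurkat lines probed with myc-tagged scFv periplasmic extracts, anti-myc PE flow cytometry, PE MFI fold binned − <2, + 2–10, ++ 10–30, +++ >30.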
Method: (§1) Jurkat cells were engineered to stably express either the huCD33-R69 or huCD33-G69 variant at >200,000 receptors per cell. Parental, huCD33-R69, and huCD33-G69 Jurkat cell lines were stained with differing levels of CellTrace Violet Cell Proliferation Kit (ThermoFisher, cat. #C34557) to barcode each cell line. Barcoded Jurkat cell lines were fixed with paraformaldehyde and incubated with myc-labeled scFv periplasmic extracts and a secondary anti-myc PE-conjugated monoclonal antibody. Appropriate positive and negative controls were used. Stained cells were analyzed by flow cytometry (CytoFLEX, Beckman Coulter, Inc.) and binding was assessed by change in PE mean fluorescence intensity (MFI) of the barcoded cell populations.
(§2) Data is disclosed below in Table 16c, reporting FACS fold change over parental as (−), indicating <2 fold; (+), indicating 2-10 fold; (++), indicating 10-30 fold; and (+++), indicating >30 fold.

Assay [3] deals with T3, huCD33-G69 stably expressed on Jurkat cells (human, UniProt P20138 18-364).
T3 construct: whole, on cells; >200,000 receptors per cell; also called CD33 Mutant; CD33 R69G
Briefly: FACS on cells.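 Also: fixed Jurkat lines probed with myc-tagged scFv periplasmic extracts, anti-myc PE flow cytometry, PE MFI fold binned − <2, + 2–10, ++ 10–30, +++ >30.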
Method: as §1, §2

A value given as a limit tells only on which side of the number the result lay.
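For result in this document: biolayer interferometry: scFvs captured from periplasmic extracts on anti-V5-loaded streptavidin biosensors, antigen association for 2 min, buffer dissociation for 5 min, 1:1 Langmuir fit giving off-rate.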

T2 sequence (P20138 18-364): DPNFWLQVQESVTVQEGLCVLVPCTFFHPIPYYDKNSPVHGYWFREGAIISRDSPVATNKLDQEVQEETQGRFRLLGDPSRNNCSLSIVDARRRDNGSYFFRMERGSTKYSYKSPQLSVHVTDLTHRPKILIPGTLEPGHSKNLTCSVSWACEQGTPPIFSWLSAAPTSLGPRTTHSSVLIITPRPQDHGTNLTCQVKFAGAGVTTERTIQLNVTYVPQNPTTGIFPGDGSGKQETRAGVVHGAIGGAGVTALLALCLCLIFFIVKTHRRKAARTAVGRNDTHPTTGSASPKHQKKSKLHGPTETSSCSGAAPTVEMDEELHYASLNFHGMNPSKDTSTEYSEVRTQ
T1 sequence (P20138 18-259 R69G): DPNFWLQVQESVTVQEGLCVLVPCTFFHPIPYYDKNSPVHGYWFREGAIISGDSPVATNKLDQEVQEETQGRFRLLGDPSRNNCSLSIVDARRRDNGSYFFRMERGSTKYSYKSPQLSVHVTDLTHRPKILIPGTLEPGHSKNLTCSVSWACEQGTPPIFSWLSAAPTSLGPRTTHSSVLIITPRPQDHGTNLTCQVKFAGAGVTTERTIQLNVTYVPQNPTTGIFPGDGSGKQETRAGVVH
T3 sequence (P20138 18-364 R69G): as the sequence (P20138 18-364) above, with R52G counted along it

B1: Polypeptide No. 93 (scFv, V domains shown)
VH: QVQLVQSGAEVKKPGASVKVSCKASGYSFTNYDISWVRQAPGQGLEWMGWVNPNSGNTGYAQKFQGRVTMTRDTSTSTVYMELSSLRSEDTAVYYCAKDAPYYYDSSGYYGVFDYWGQGTLVTVSS
VL: DIVMTQSPLSLPVTPGEPASISCRSSQSLLHSNGYNYLDWYLQKPGQSPQLLIYAASSLQSGVPDRFSGSGSGTDFTLKISRVEAEDVGVYYCMQALQTPLTFGQGTRLEIKR
notes: scFv
As to B1, the binding result in assay [1] is “binds”. Moreover, the “FACS geometric mean fold change over Jurkat parental” value (from here on “FACS geometric mean fold change”) in assay [2] and in assay [3] was 2 to 10 fold each time.

B2: Polypeptide No. 94 (scFv, V domains shown)
VH: QVQLVQSGAEVKKPGASVKVSCKASGYTFTTYDINWVRQAPGQGLEWMGWISGYNGNTGYAQKFQGRVTMTRDTSTSTVYMELSSLRSEDTAVYYCAKDMGYGDYPDAFDIWGQGTMVTVSS
VL: DIVMTQSPLSLPVTPGEPASISCRSSQSLLHSNGYNYLDWYLQKPGQSPQLLIYAASTLQSGVPDRFSGSGSGTDFTLKISRVEAEDVGVYYCMQALQIPITFGQGTKVEIKR
notes: scFv
With B2, in assay [1], the binding result is recorded as “binds”. The entries for the “FACS geometric mean fold change” value in assay [2] and in assay [3] were 2 to 10 fold and 10 to 30 fold, respectively.

B3: Polypeptide No. 95 (scFv, V domains shown)
VH: QVQLVQSGAEVKKPGSSVKVSCKASGYSFTTYDINWVRQAPGQGLEWMGRMNPNSGNTGYAQKFQGRVTITADESTSTAYMELSSLRSEDTAVYYCARVVHGMDVWGQGTTVTVSS
VL: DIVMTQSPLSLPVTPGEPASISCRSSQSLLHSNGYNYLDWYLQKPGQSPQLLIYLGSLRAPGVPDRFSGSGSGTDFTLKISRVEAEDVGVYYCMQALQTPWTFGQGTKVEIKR
notes: scFv
On to B3, for which the binding result in assay [1] was “binds”. The “FACS geometric mean fold change” value in assay [2] and in assay [3] was 2 to 10 fold each time.

B4: Polypeptide No. 92 (scFv, V domains shown)
VH: QVQLVQSGAEVKKPGASVKVSCKASGYTFTNHYMHWVRQAPGQGLEWMGIINPSGGSTSYAQKFQGRVTMTRDTSTSTVYMELSSLRSEDTAVYYCASAEVGATHYGMDVWGQGTTVTVSS
VL: DIVMTQSPLSLPVTPGEPASISCRSSQSLLHSNGYNYLDWYLQKPGQSPQLLIYAASSLQSGVPDRFSGSGSGTDFTLKISRVEAEDVGVYYCMQALHPPTFGQGTKVEIKR
notes: scFv
In the case of B4, the binding result in assay [1] is “binds”. Moreover, the “FACS geometric mean fold change” value in assay [2] and in assay [3] was 2 to 10 fold each time.

B5: Polypeptide No. 97 (scFv, V domains shown)
VH: EVQLLESGGGLVQPGGSLRLSCAASGFTFRSYWMTWVRQAPGKGLEWVSVISGSGDNTYYADSVKGRFTISRDNSKNTLYLQMNSLRAEDTAVYYCARETTWGMDVWGQGTTVTVSS
VL: DIQMTQSPSSLSASVGDRVTITCRASQSISSYLNWYQQKPGKAPKLLIYDASNLETGVPSRFSGSGSGTDFTLTISSLQPEDFATYYCQQSSIIPLTFGGGTKVEIKR
notes: scFv
For the molecule B5, in assay [1], the binding result was “binds”. Further, the figures for the “FACS geometric mean fold change” value in assay [2] and in assay [3] were 10 to 30 fold and 2 to 10 fold, respectively.

B6: Polypeptide No. 101 (scFv, V domains shown)
VH: EVQLLESGGGLVQPGGSLRLSCAASGFTFSSYGVHWVRQAPGKGLEWVSAISGDGGDTYYADSVKGRFTISRDNSKNTLYLQMNSLRAEDTAVYYCARDTWDYSNYGGIDYWGQGTLVTVSS
VL: DIQMTQSPSSLSASVGDRVTITCRASQNINTFLNWYQQKPGKAPKLLIYAASTLQSGVPSRFSGSGSGTDFTLTISSLQPEDFATYYCQQYDSFPLTFGGGTKVEIKR
notes: scFv
On to B6, for which the binding result in assay [1] is recorded as “binds”. Besides, the “FACS geometric mean fold change” value in assay [2] and in assay [3] was more than 30 fold throughout.

B7: Polypeptide No. 106 (scFv, V domains shown)
VH: QVQLVQSGAEVKKPGASVKVSCKASGYTFTGYYMHWVRQAPGQGLEWMGRIKPNSGGTDYAQKFQGRVTMTRDTSTSTVYMELSSLRSEDTAVYYCARGAYSGSYYGPIEYFQHWGQGTLVTVSS
VL: DIQMTQSPSSLSASVGDRVTITCRASQSISWFLNWYQQKPGKAPKLLIYAASSLQNGVPSRFSGSGSGTDFTLTISSLQPEDFATYYCQQYGSFPPTFGGGTKVEIKR
notes: scFv
In the case of B7, in assay [1], the binding result was “binds”. The “FACS geometric mean fold change” value in assay [2] and in assay [3] was 2 to 10 fold throughout.

B8: Polypeptide No. 109 (scFv, V domains shown)
VH: QVQLVQSGAEVKKPGSSVKVSCKASGYTFTTYGISWVRQAPGQGLEWMGWMNPNSGNTGYAQKFQGRVTITADESTSTAYMELSSLRSEDTAVYYCAREGGDGDYPDYWGQGTLVTVSS
VL: EIVMTQSPATLSVSPGERATLSCRASQSISSSSLAWYQQKPGQAPRLLIYGASTRATGIPARFSGSGSGTEFTLTISSLQSEDFAVYYCQQYETAPYTFGQGTKLEIKR
notes: scFv
On to B8, for which the binding result in assay [1] is “binds”. Moreover, the “FACS geometric mean fold change” value in assay [2] and in assay [3] was 10 to 30 fold throughout.

B9: Polypeptide No. 102 (scFv, V domains shown)
VH: EVQLLESGGGLVQPGGSLRLSCAASGFTFSNAWMSWVRQAPGKGLEWVSGIGGSGGTIYYADSVKGRFTISRDNSKNTLYLQMNSLRAEDTAVYYCAREVAAPLHPFGYYYYMDVWGKGTTVTVSS
VL: not shown
notes: scFv
With B9, the binding result in assay [1] is “binds”. Moreover, the “FACS geometric mean fold change” value in assay [2] and in assay [3] was 10 to 30 fold throughout.

B10: Polypeptide No. 99 (scFv, V domains shown)
VH: QVQLVQSGAEVKKPGSSVKVSCKASGYTFSDYHIHWVRQAPGQGLEWMGWMNPNSGNTGYAQKFQGRVTITADESTSTAYMELSSLRSEDTAVYYCARTHSSGYYYWFDPWGQGTLVTVSS
VL: DIQMTQSPSSLSASVGDRVTITCRASQGISNNLNWYQQKPGKAPKLLIYQASNKDTGVPSRFSGSGSGTDFTLTISSLQPEDFATYYCQQSYSSPPTFGQGTKVEIKR
notes: scFv
Turning to B10, the binding result in assay [1] is recorded as “binds”. In addition, the “FACS geometric mean fold change” value in assay [2] is more than 30 fold; in assay [3], 10 to 30 fold.

B11: Polypeptide No. 107 (scFv, V domains shown)
VH: QVQLVQSGAEVKKPGSSVKVSCKASGYTFTDYYIHWVRQAPGQGLEWMGGIIPIFGTANYAQKFQGRVTITADESTSTAYMELSSLRSEDTAVYYCAREPLWFGESSPHDYYGMDVWGQGTLVTVSS
VL: DIQMTQSPSSLSASVGDRVTITCQASQDISNYLNWYQQKPGKAPKLLIYAASTLQSGVPSRFSGSGSGTDFTLTISSLQPEDFATYYCQQSYSSPPTFGQGTKVEIKR
notes: scFv
B11: in assay [1], the binding result was “binds”. Also, the “FACS geometric mean fold change” value in assay [2] and in assay [3] was 10 to 30 fold each time.

B12: Polypeptide No. 96 (scFv, V domains shown)
VH: QVQLVQSGAEVKKPGASVKVSCKASGGTFSSYAISWVRQAPGQGLEWMGWMNPSSANTGYAQKFQGRVTMTRDTSTSTVYMELSSLRSEDTAVYYCAKDEMELLTAFDIWGQGTMVTVSS
VL: DIQMTQSPSSLSASVGDRVTITCRASQSIGSWLAWYQQKPGKAPKLLIYGVSTLHSGVPSRFSGSGSGTDFTLTISSLQPEDFATYYCQQSYSTPPTFGQGTKLEIKR
notes: scFv
With B12, in assay [1], the binding result is listed as “binds”. Besides, the “FACS geometric mean fold change” value in assay [2] and in assay [3] was more than 30 fold each time.

B13: Polypeptide No. 105 (scFv, V domains shown)
VH: EVQLLESGGGLVQPGGSLRLSCAASGFTFNNAWMTWVRQAPGKGLEWVAVISYDGSNKYYADSVKGRFTISRDNSKNTLYLQMNSLRAEDTAVYYCARMAVAGKGAFDIWGQGTMVTVSS
VL: DIQMTQSPSSLSASVGDRVTITCRASQSIYSWLAWYQQKPGKAPKLLIYAASTLQSGVPSRFSGSGSGTDFTLTISSLQPEDFATYYCQQTYSTPVTFGQGTKVEIKR
notes: scFv
As to B13, the binding result in assay [1] was “binds”. Besides, the “FACS geometric mean fold change” value in assay [2] and in assay [3] was 10 to 30 fold each time.

B14: Polypeptide No. 110 (scFv, V domains shown)
VH: QVQLVQSGAEVKKPGASVKVSCKASGYTFTDYYVHWVRQAPGQGLEWMGWMNPNSGNTGYAQKFQGRVTMTRDTSTSTVYMELSSLRSEDTAVYYCARDFIWVEGYLASPPPRFDYWGQGTLVTVSS
VL: DIQMTQSPSSLSASVGDRVTITCRASQRIGNWLAWYQQKPGKAPKLLIYAASSLQSGVPSRFSGSGSGTDFTLTISSLQPEDFATYYCQQSYSTPLTFGQGTKLEIKR
notes: scFv
Regarding B14, the binding result in assay [1] is “binds”. Also, the “FACS geometric mean fold change” value in assay [2] and in assay [3] was more than 30 fold each time.

B15: Polypeptide No. 98 (scFv, V domains shown)
VH: QVQLVQSGAEVKKPGASVKVSCKASGGSFSSSAINWVRQAPGQGLEWMGWMNPNSGNTGYAQKFQGRVTMTRDTSTSTVYMELSSLRSEDTAVYYCARDRGIAVAGASPYYYYGMDVWGQGTTVTVSS
VL: DIQMTQSPSSLSASVGDRVTITCRASQDIGSYLAWYQQKPGKAPKLLIYAASSLQSGVPSRFSGSGSGTDFTLTISSLQPEDFATYYCHQSYSTPFTFGQGTKLEIKR
notes: scFv
With B15, the binding result in assay [1] is given as “binds”. The “FACS geometric mean fold change” value was 10 to 30 fold in assay [2] and more than 30 fold in assay [3].

B16: Polypeptide No. 104 (scFv, V domains shown)
VH: EVQLLESGGGLVQPGGSLRLSCAASGFTFSSSWMHWVRQAPGKGLEWVAVISYDGSEEYYADSVKGRFTISRDNSKNTLYLQMNSLRAEDTAVYYCARLTDYGDYVLGRYLSDWGQGTLVTVSS
VL: DIQMTQSPSSLSASVGDRVTITCRASQGISSYLAWYQQKPGKAPKLLIYAASSLQSGVPSRFSGSGSGTDFTLTISSLQPEDFATYYCQQSYSIPPTFGQGTKLEIKR
notes: scFv
B16: in assay [1], the binding result was “binds”. Also, the “FACS geometric mean fold change” value in assay [2] and in assay [3] was more than 30 fold in each case.

B17: Polypeptide No. 103 (scFv, V domains shown)
VH: QVQLVQSGAEVKKPGASVKVSCKASGYTFTGYYMHWVRQAPGQGLEWMGWMNPDSGDTNYAQNFQGRVTMTRDTSTSTVYMELSSLRSEDTAVYYCATTRQPHYGMDVWGQGTTVTVSS
VL: not shown
notes: scFv
As to B17, the binding result in assay [1] is “binds”. For the same molecule, the “FACS geometric mean fold change” value in assay [2] and in assay [3] was 10 to 30 fold throughout.
